Measurements: patent US20230348881

What was measured:
[1] = molecular target: Mutant 3, modified PPE proprotein with the MMP12 cleavage site, balanced (SEQ ID NO: 10)
[2] = molecular target: exemplary modified PPE proproteins
[3] = molecular target: wild-type PPE proprotein as used in Example 2
[4] = molecular target: Mutant 2, modified PPE proprotein with the MMP12 cleavage site, PPE optimized (SEQ ID NO: 9)
Chain of Mutant 2, modified PPE proprotein with the MMP12 cleavage site, PPE optimized (SEQ ID NO: 9) (chain, as listed by the source mutant): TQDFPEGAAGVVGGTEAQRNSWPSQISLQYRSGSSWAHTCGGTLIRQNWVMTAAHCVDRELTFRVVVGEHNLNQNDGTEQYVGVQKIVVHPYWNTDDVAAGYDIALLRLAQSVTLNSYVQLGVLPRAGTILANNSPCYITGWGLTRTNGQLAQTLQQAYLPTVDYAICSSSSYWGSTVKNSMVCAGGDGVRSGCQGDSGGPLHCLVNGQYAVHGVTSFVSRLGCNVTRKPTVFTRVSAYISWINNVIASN

Chain of wild-type PPE proprotein as used in Example 2 (chain, as listed by the source): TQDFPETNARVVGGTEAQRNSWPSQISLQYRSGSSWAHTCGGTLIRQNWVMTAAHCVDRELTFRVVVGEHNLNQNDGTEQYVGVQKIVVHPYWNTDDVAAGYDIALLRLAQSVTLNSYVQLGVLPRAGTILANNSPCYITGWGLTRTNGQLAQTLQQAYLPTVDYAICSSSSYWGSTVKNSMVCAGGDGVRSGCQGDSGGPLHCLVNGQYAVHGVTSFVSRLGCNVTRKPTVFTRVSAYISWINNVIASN
Chain of Mutant 3, modified PPE proprotein with the MMP12 cleavage site, balanced (SEQ ID NO: 10) (chain, as listed by the source mutant): as the sequence (chain, as listed by the source) above, with T7G, N8A, R10G, V11L counted along it

B1: human MMP12 (matrix metalloproteinase-12) (protein)
chain: GPVWRKHYITYRINNYTPDMNREDVDYAIRKAFQVWSNVTPLKFSKINTGMADILVVFARGAHGDFHAFDGKGGILAHAFGPGSGIGGDAHFDEDEFWTTHSGGTNLFLTAVHEIGHSLGLGHSSDPKAVMFPTYKYVDINTFRLSADDIRGIQSLYG
protease cleavage by SDS-PAGE and Coomassie blue staining [1]: the MMP12 protease cleaved the exemplary modified PPE proteins designated as ... Mutant 3 (3B) | catalytic activity after protease digestion (colorimetric substrate assay), FIG. 4B [2]: catalytically-active after incubation with MMP12 | catalytic activity after protease digestion (colorimetric substrate assay, N-Methoxysuccinyl-Ala-Ala-Pro-Val p-nitroanilide), FIG. 4A [2]: catalytically-active after incubation by MMP12, relative to the activity of the native PPE as a control | catalytic activity after protease digestion (colorimetric substrate assay), FIG. 4B [3]: catalytically-inactive after incubation with MMP12 or no protease | protease cleavage by SDS-PAGE and Coomassie blue staining [4]: the MMP12 protease cleaved the exemplary modified PPE proteins designated as Mutant 2 (3A)

B2: human MMP7 (protein)
chain: YSLFPNSPKWTSKVVTYRIVSYTRDLPHITVDRLVSKALNMWGKEIPLHFRKVVWGTADIMIGFARGAHGDSYPFDGPGNTLAHAFAPGTGLGGDAHFDEDERWTDGSSLGINFLYAATHELGHSLGMGHSSDPNAVMYPTYGNGDPQNFKLSQDDIKGIQKLYGKRSNSRKK
catalytic activity after protease digestion (colorimetric substrate assay), FIG. 4B [2]: partially-catalytically-active after incubation with MMP7
